Assay results as given in patent US20210388087A1 (Chugai, published 2021).
Positions count from the first letter of the chain named. In names and notes the source's numbering stands.

B1: H183/L072 VH G52cV (antibody, name in Kabat numbering, V domains shown)
VH: QVQLVESGGGLVQPGRSLRLSCAASGFTFSNAWMHWVRQAPGKGLEWVAQIKDKVNAYAAYYAPSVKGRFTISRDDSKNSIYLQMNSLKTEDTAVYYCHYVHYASASTVLPAFGVDAWGQGTTVTVSS
VL: DIVMTQSPLSLPVTPGEPASISCQASQELVHMNRNTYLHWYQQKPGQAPRLLIYKVSNRFPGVPDRFSGSGSGTDFTLKISRVEAEDVGVYYCAQGTSVPFTFGQGTKLEIK
B2: H183/L072 VH H93A (antibody, name in Kabat numbering, V domains shown)
VH: B1 VH with V55G, H99A
VL: B1 VL
B3: H183/L072 VH G100hM (antibody, name in Kabat numbering, V domains shown)
VH: B1 VH with V55G, G114M
VL: B1 VL
B4: H183/L072 VH H96L (antibody, name in Kabat numbering, V domains shown)
VH: B1 VH with V55G, H102L
VL: B1 VL
B5: H183/L072 VH H96P (antibody, name in Kabat numbering, V domains shown)
VH: B1 VH with V55G, H102P
VL: B1 VL
B6: H183/L072 VH I51M (antibody, name in Kabat numbering, V domains shown)
VH: B1 VH with I51M, V55G
VL: B1 VL
B7: H183/L072 VH I51A (antibody, name in Kabat numbering, V domains shown)
VH: B1 VH with I51A, V55G
VL: B1 VL
B8: H183/L072 VH G65I (antibody, name in Kabat numbering, V domains shown)
VH: B1 VH with V55G, G68I
VL: B1 VL
B9: H183/L072 VH I51K (antibody, name in Kabat numbering, V domains shown)
VH: B1 VH with I51K, V55G
VL: B1 VL
B10: H183/L072 VH H93L (antibody, name in Kabat numbering, V domains shown)
VH: B1 VH with V55G, H99L
VL: B1 VL
B11: H183/L072 VH I51N (antibody, name in Kabat numbering, V domains shown)
VH: B1 VH with I51N, V55G
VL: B1 VL
B12: H183/L072 VH G100hA (antibody, name in Kabat numbering, V domains shown)
VH: B1 VH with V55G, G114A
VL: B1 VL
B13: H183/L072 VH G65M (antibody, name in Kabat numbering, V domains shown)
VH: B1 VH with V55G, G68M
VL: B1 VL
B14: H183/L072 VH H93M (antibody, name in Kabat numbering, V domains shown)
VH: B1 VH with V55G, H99M
VL: B1 VL
B15: H183/L072 VH H96M (antibody, name in Kabat numbering, V domains shown)
VH: B1 VH with V55G, H102M
VL: B1 VL
B16: H183/L072 VH H35Y (antibody, name in Kabat numbering, V domains shown)
VH: B1 VH with H35Y, V55G
VL: B1 VL
B17: H183/L072 VH H93P (antibody, name in Kabat numbering, V domains shown)
VH: B1 VH with V55G, H99P
VL: B1 VL
B18: H183/L072 VH H93I (antibody, name in Kabat numbering, V domains shown)
VH: B1 VH with V55G, H99I
VL: B1 VL
B19: H183/L072 VH G52cW (antibody, name in Kabat numbering, V domains shown)
VH: B1 VH with V55W
VL: B1 VL
B20: H183/L072 VH I51L (antibody, name in Kabat numbering, V domains shown)
VH: B1 VH with I51L, V55G
VL: B1 VL
B21: H183/L072 VH H96I (antibody, name in Kabat numbering, V domains shown)
VH: B1 VH with V55G, H102I
VL: B1 VL
B22: H183/L072 VH G65L (antibody, name in Kabat numbering, V domains shown)
VH: B1 VH with V55G, G68L
VL: B1 VL
B23: H183/L072 VH I51G (antibody, name in Kabat numbering, V domains shown)
VH: B1 VH with I51G, V55G
VL: B1 VL
B24: H183/L072 VH G100hI (antibody, name in Kabat numbering, V domains shown)
VH: B1 VH with V55G, G114I
VL: B1 VL
B25: H183/L072 VH G65A (antibody, name in Kabat numbering, V domains shown)
VH: B1 VH with V55G, G68A
VL: B1 VL
B26: H183/L072 VH G100hL (antibody, name in Kabat numbering, V domains shown)
VH: B1 VH with V55G, G114L
VL: B1 VL
B27: H183/L072 VH H96A (antibody, name in Kabat numbering, V domains shown)
VH: B1 VH with V55G, H102A
VL: B1 VL
B28: H183/L072 VH H35F (antibody, name in Kabat numbering, V domains shown)
VH: B1 VH with H35F, V55G
VL: B1 VL
B29: H183/L072 VH G52cY (antibody, name in Kabat numbering, V domains shown)
VH: B1 VH with V55Y
VL: B1 VL
B30: H183/L072 VH H35N (antibody, name in Kabat numbering, V domains shown)
VH: B1 VH with H35N, V55G
VL: B1 VL
B31: H183/L072 VH H35T (antibody, name in Kabat numbering, V domains shown)
VH: B1 VH with H35T, V55G
VL: B1 VL
B32: H183/L072 VH H35V (antibody, name in Kabat numbering, V domains shown)
VH: B1 VH with H35V, V55G
VL: B1 VL
B33: H183/L072 VH G65P (antibody, name in Kabat numbering, V domains shown)
VH: B1 VH with V55G, G68P
VL: B1 VL

Biological target: T1, Human CD137 ECD (human)
T1 construct: also called 4-1BB
T1 sequence (chain, as listed by the source limits assumed): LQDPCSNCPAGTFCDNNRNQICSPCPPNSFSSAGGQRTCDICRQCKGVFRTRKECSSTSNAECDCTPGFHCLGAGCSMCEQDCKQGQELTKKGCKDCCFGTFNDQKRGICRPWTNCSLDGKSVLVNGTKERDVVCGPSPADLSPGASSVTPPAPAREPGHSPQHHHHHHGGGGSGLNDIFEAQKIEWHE
Test: single mutant vs template dBBDu183H

Row | fold change of affinity [fold] | Binder
1 | 0.7 | B1
2 | 0 | B2
3 | 0 | B3
4 | 0.8 | B4
5 | 0 | B5
6 | 0.2 | B6
7 | 0.1 | B7
8 | 1.3 | B8
9 | 0.1 | B9
10 | 0 | B10
11 | 0.2 | B11
12 | 0 | B12
13 | 1.2 | B13
14 | 0 | B14
15 | 1.4 | B15
16 | 3.9 | B16
17 | 0 | B17

Row | fold change of affinity [fold] | Binder
18 | 0 | B18
19 | 2 | B19
20 | 0.1 | B20
21 | 0.5 | B21
22 | 1.3 | B22
23 | 0.1 | B23
24 | 0 | B24
25 | 1.2 | B25
26 | 0 | B26
27 | 0 | B27
28 | 4.3 | B28
29 | 2 | B29
30 | 0.4 | B30
31 | 0.5 | B31
32 | 0.5 | B32
33 | 1.3 | B33
